Data: patent US8975044B2, “Polynucleotides encoding for frizzled-binding agents and uses thereof” (OncoMed Pharmaceuticals, Inc., priority 2008, dated 2015)

B1: 18R5: human anti-FZD antibody; VH SEQ ID NO:10 (as 18R8), VL SEQ ID NO:14; binds FZD1, 2, 5, 7, 8 (antibody, V domains shown)
VH: EVQLVESGGGLVQPGGSLRLSCAASGFTFSHYTLSWVRQAPGKGLEWVSVISGDGSYTYYADSVKGRFTISSDNSKNTLYLQMNSLRAEDTAVYYCARNFIKYVFANWGQGTLVTVSS
VL: DIELTQPPSVSVAPGQTARISCSGDNIGSFYVHWYQQKPGQAPVLVIYDKSNRPSGIPERFSGSNSGNTATLTISGTQAEDEADYYCQSYANTLSLVFGGGTKLTVLG
modifications: 18R5/18R8 heavy chain variable region (VH); 18R5 light chain variable region (VL)
B2: 18R8: human anti-FZD antibody from phage display; VH SEQ ID NO:10, VL SEQ ID NO:12; binds FZD1, 2, 5, 7, 8 (antibody, V domains shown)
VH: B1 VH
VL: DIELTQPPSVSVAPGQTARISCSGDKLGKKYASWYQQKPGQAPVLVIYEKDNRPSGIPERFSGSNSGNTATLTISGTQAEDEADYYCSSFAGNSLEVFGGGTKLTVLG
modifications: 18R5/18R8 heavy chain variable region (VH); 18R8 light chain variable region (VL)
B3: 44R24: anti-FZD5/8 IgG antibody, VH SEQ ID NO:85, VL SEQ ID NO:86; ATCC deposit no. PTA-10311 (antibody, V domains shown)
VH: EVQLVESGGGLVQPGGSLRLSCAASGFTFSSYYITWVRQAPGKGLEWVSTISYSSSNTYYADSVKGRFTISRDNSKNTLYLQMNSLRAEDTAVYYCARSIVFDYWGQGTLVTVSS
VL: DIELTQPPSVSVAPGQTARISCSGDALGNRYVYWYQQKPGQAPVLVIPSGIPERFSGSNSGNTATLTISGTQAEDEADYYCGSWDTRPYPKYVFGGGTKLTVLG
modifications: 44R24 VH; 44R24 VL
notes: ATCC deposit no; PTA-10311

Key:
PE13 breast tumors = experiment: PE13 breast tumor limiting dilution assay (LDA); format: in vivo, mice; details: antibody 20 mg/kg once per week; 50, 150 or 500 cells re-injected, 59 days; L-calc
Protocol: PE13 breast tumor limiting dilution assay (LDA) study with 18R5 mAb: Animals bearing PE13 breast tumors were treated with either control antibody (gray circles), 18R5 (open triangles), taxol (black circles), or the combination of taxol and 18R5 (open squares). Taxol was dosed at 15 mg/kg twice per week and the antibodies were dosed 20 mg/kg once per week. Tumors were harvested and the human tumor cells were purified by lin depletion. 50, 150, or 500 tumor cells were injected into a new cohort of mice (n=10 per cell dose). Tumor growth frequency was monitored after 59 days and used to calculate the CSC frequency (L-calc).

OMP-Pn4 tumors = experiment: Limiting dilution assay of cancer stem cell frequency in treated OMP-Pn4 tumors; format: in vivo, NOD/SCID mice; details: tumors after 41 days treatment; 30-810 cells re-injected, 75 days; L-Calc
Protocol: Control and treated tumors from the OMP-Pn4 xenograft study described above (Example 7) were harvested at the end of 41 days treatment. The tumors were processed and dissociated into single cells. Tumor cells were then incubated with biotinylated mouse antibodies (α-mouse CD45-biotin 1:200 dilution and rat α-mouse H2 Kd-biotin 1:100 dilution, BioLegend, San Diego, Calif.) on ice for 30 min followed by addition of streptavidin-labeled magnetic beads (Invitrogen, Carlsbad, Calif.) to remove mouse cells. The remaining human cells in the suspension were collected, counted and diluted to appropriate cell doses (30, 90, 270 and 810 cells), mixed in the mixture of 1:1 (v/v) FACS buffer and Matrigel and injected subcutaneously in NOD/SCID mice (10 mice per cell dose per treatment group). Each dot in FIG. 40 represents the tumor volume of an individual mouse. The percentage of mice with detectable tumors was determined in all groups injected with anti-FZD antibody treated tumor cells and compared to the percentage of mice with detectable tumors in the controls. For example, the number of mice injected with 810 control-treated tumor cells that have detectable tumors was determined and compared to the number of mice injected with 810 FZD-antibody treated tumor cells that have detectable tumors. […]

Cytokeratin 7 = Cytokeratin 7 immunohistochemistry on treated C28 tumors; format: in vivo, Nod-Scid mice; details: tumors harvested after treatment, 15 mg/kg twice per week
Protocol: Following treatment of the animals in the experiment shown in FIG. 58, tumors were harvested, fixed in formalin, embedded in paraffin, and cut in 5 micron sections. Tumor sections were analyzed for Cytokeratin 7 expression, a marker of colon cell differentiation, by immunohistochemistry (Vectastain kit, Vector Labs). Cytokeratin 7 expression was seen to be elevated after treatment with 44R24 or 18R5 (FIG. 59).

[1] = test system: OMP-LU33 human lung tumors; experiment: OMP-LU33 lung tumor xenograft growth; format: in vivo, NOD-SCID mice; details: antibodies 10 mg/kg IP twice per week
Protocol: 10,000 OMP-LU33 human lung tumor cells were injected subcutaneously in NOD-SCID mice. Tumors were allowed to grow for 30 days until they reached an average volume of 124 mm^3. The animals were randomized into 4 groups (n=10 per group) and treated with either control antibody (squares), Avastin® (triangles pointing down), anti-FZD 18R5 (triangles pointing up), or the combination of 18R5 plus Avastin® (circles).

PE13 breast tumor = PE13 breast tumor recurrence study; format: in vivo, Nod-Scid mice; details: taxol 15 mg/kg twice per week + 18R5 20 mg/kg once per week vs taxol + control antibody; taxol stopped at day 70
Protocol: PE13 breast tumor recurrence study with 18R5 mAb: PE13 breast tumor cells were injected into Nod-Scid mice and allowed to grow until the tumors had reached approximately 100 mm^3. The animals were randomized into two groups (n=10) and given taxol (15 mg/kg, twice per week)+Control antibody (black squares) or the same dose of taxol+Anti-FZD 18R5 (gray open circles). Antibodies were dosed at 20 mg/kg once per week. Taxol treatments were stopped at day 70 and the antibody treatments continued.

PN4 tumors = experiment: Alcian blue staining of treated PN4 tumor sections; format: in vivo, mice; details: relative to controls and the gemcitabine alone group; data not shown
Excerpt: Another characteristic of endocrine, secretory or ductal cells is the production of mucin and these cells can be detected by alcian blue staining (van Es et al. 2005. Nature 435 959-63). It was observed during harvesting and processing of tumors that the 18R5 treated tumors were much more mucinous than control treated tumors. Therefore, PN4 tumors sections from mice treated with control antibody, gemcitabine alone, 18R5 alone, or 18R5 plus gemcitabine were stained with alcian blue.

PN13 tumors = experiment: Alcian blue and ki67 staining of treated PN13 tumor sections; format: in vivo, NOD/SCID mice; details: vs control antibody
Protocol: FIG. 43. Treatment with anti-FZD antibody 18R5 promotes differentiation of tumor cells into non-proliferative mucinous cells. NOD/SCID mice were injected with 50,000 OMP-PN13 pancreatic tumor cells and on day 23, mice with tumors of average volume of about 107 mm^3 were randomized, and treatment with control antibody or 18R5 was initiated four days later. After 20 days tumors were collected and sectioned. Tumor sections from 18R5 treated mice or control antibody treated mice were stained with alcian blue stain to reveal mucinous cells and by immunohistochemistry with antibody to ki67 to reveal proliferative cells. Exemplary mucinous cells and proliferative cells are highlighted by arrows.
Increased mucinous cells were also noted in a second pancreatic tumor line, PN13, following treatment with 18R5 […] (FIG. 43). In this experiment mice bearing PN13 tumors were treated as described above (Example 7). Tumors sections were stained with alcian blue to reveal mucinous cells and also stained by immunohistochemistry with an antibody to ki67 to reveal cells undergoing proliferation. […] Additionally, the frequency of ki67 positive cells was reduced by 18R5 treatment. […] This provides evidence that 18R5 treatment is promoting the differentiation of tumor cells into non-proliferative progeny.

FZD5 = experiment: Biacore affinity to recombinant Fzd Fc protein; format: binding, human; details: IgG antibody; Fzd Fc immobilized on CM5 Biacore chip
Sequence of FZD5 (Q13467 27-150 limits assumed): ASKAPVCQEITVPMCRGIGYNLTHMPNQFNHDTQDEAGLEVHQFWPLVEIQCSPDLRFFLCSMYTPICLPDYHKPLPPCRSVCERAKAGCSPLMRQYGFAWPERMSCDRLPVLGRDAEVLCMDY
Protocol: (§1) The KDs of 18R8 and 18R5 antibodies were determined using the Biacore 2000 system from Biacore Lifescience (GE Healthcare). Specifically, purified anti-Fzd7 antibodies were serially diluted in 2-fold increments from 100 to 0.78 nM in HBS-P (0.01 M HEPES pH 7.4, 0.15 M NaCl, 0.005% v/v Surfactant P20). Each dilution was tested against recombinant Fzd Fc proteins immobilized onto a CM5 Biacore chip. The association and dissociation rates were measured and KD values determined using the Biaevaluation software program (Table 5, below).

FZD1 = experiment: Biacore affinity to recombinant Fzd Fc protein; format: binding, human; details: IgG antibody; Fzd Fc immobilized on CM5 Biacore chip
Protocol: as §1

FZD2 = experiment: Biacore affinity to recombinant Fzd Fc protein; format: binding, human; details: IgG antibody; Fzd Fc immobilized on CM5 Biacore chip
Protocol: as §1

Molecule | breast cancer stem cell frequency (PE13 breast tumors) | cancer stem cell frequency (OMP-Pn4 tumors) | Cytokeratin 7 expression (Cytokeratin 7) | xenograft tumor growth [1] | tumor regression and recurrence (PE13 breast tumor) | alcian blue staining (PN4 tumors) | alcian blue positive mucinous cells (PN13 tumors) | frequency of ki67 positive cells (PN13 tumors) | Kd (FZD5) [nM] | Kd (FZD1) [nM] | Kd (FZD2) [nM]
B1 | Reduction of breast cancer stem cell frequency | reduced cancer stem cell frequency | elevated | inhibits OMP-LU33 xenograft tumor growth | enhance the rate of tumor regression and to delay tumor recurrence | clear increase in alcian blue staining | greatly increased numbers of alcian blue positive mucinous cells | reduced | 1.9 | 4.6 | 3.3
B2 | – | – | – | – | – | – | – | – | 4.2 | 15.6 | 6.2
B3 | – | – | elevated | – | – | – | – | – | – | – | –
